Values of other authors as cited in US20150182494A1, “METHOD OF MANAGING DIABETIC FOOT ULCERS, PRESSURE ULCERS, VENOUS LEG ULCERS AND ASSOCIATED COMPLICATION” (INDUS BIOTECH PRIVATE LIMITED, priority 2012, published 2015).

Details: patients treated with 3 or more tubes

## becalpermin [Regranex gel]
  Mortality secondary to malignancy, in words: increased rate of mortality secondary to malignancy
